According to patent publication US20240252614A1 (Pfizer, published 2024):

Experiments:
PIV1064 = target: T1, PIV1064 (PIV1); experiment: BLI, 56C stress;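 also: binding of thermally stressed PIV1 F mutant supernatant to mAb on AHC biosensors for 5 min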
T1 construct: F113G, F114S, Q92C-G134C, A466I, S473I, A480L
Procedure: (§1) The OCTET HTX (Sartorius, Gottingen, Germany) instrument was used to evaluate the expression and conformational integrity for each mutant. All measurements were conducted at 30° C. temperature in 96-well black plates (Corning, Corning, NY) with a final volume of 240 μL per well at a constant agitation rate of 1000 RPM.
(§2) Conformation integrity of PIV1 F protein mutants were evaluated by a thermal stress experiment. Crude cell culture supernatants were normalized based on the results of the titer quantitation and then incubated for 1 hour at room temperature and two higher temperatures. For the initial testing of PIV1 mutants, the two temperatures were 50° C. and 53° C. […] Anti-Human IgG Fc Capture (AHC) biosensors were first equilibrated in PB for before being dipped into more PB to establish the initial baseline. […] The mAb-bound biosensors were then dipped into the thermal stresses cell culture supernatants for 5 minutes.

PIV1060 = target: T2, PIV1060 (PIV1); experiment: BLI, 56C stress;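 also: binding of thermally stressed PIV1 F mutant supernatant to mAb on AHC biosensors for 5 min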
T2 construct: Q92L, G134A, A466L, S473L, A480L
Procedure: as §1, §2

PIV1058 = target: T3, PIV1058 (PIV1); experiment: BLI, 56C stress;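 also: binding of thermally stressed PIV1 F mutant supernatant to mAb on AHC biosensors for 5 min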
T3 construct: A466L, S473L, Q92A, G134A
Procedure: as §1, §2

PIV1049 = target: T4, PIV1049 (PIV1); experiment: BLI, 56C stress;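 also: binding of thermally stressed PIV1 F mutant supernatant to mAb on AHC biosensors for 5 min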
T4 construct: Q92C-G134C, A466L, S473L
Procedure: as §1, §2

PIV1061 = target: T5, PIV1061 (PIV1); experiment: BLI, 56C stress
T5 construct: Q92L, G134A, A466L, S473L
Procedure: as §1, §2

PIV1067 = target: T6, PIV1067 (PIV1); experiment: BLI, 56C stress
T6 construct: F113G, F114S, Q92C-G134C, A466I, S473I, A480I
Procedure: as §1, §2

PIV1063 = target: T7, PIV1063 (PIV1); experiment: BLI, 56C stress
T7 construct: A466L, S473L, A480L, Q92A, G134L
Procedure: as §1, §2

PIV1053 = target: T8, PIV1053 (PIV1); experiment: BLI, 56C stress
T8 construct: F113G, F114S, A466L, S473L, A480L, G134A
Procedure: as §1, §2

PIV1047 = target: T9, PIV1047 (PIV1); experiment: BLI, 56C stress
T9 construct: F113G, F114S, Q92C-G134C, A466L, S473L, A480L
Procedure: as §1, §2

PIV1051 = target: T10, PIV1051 (PIV1); experiment: BLI, 56C stress
T10 construct: Q92C-G134C, A466V, S473V, A480V
Procedure: as §1, §2

PIV1059 = target: T11, PIV1059 (PIV1); experiment: BLI, 56C stress
T11 construct: F113G, F114S, A466L, S473L, A480L, G134A, Q92L
Procedure: as §1, §2

PIV1065 = target: T12, PIV1065 (PIV1); experiment: BLI, 56C stress
T12 construct: F113G, F114S, Q92C-G134C, A466I, S473I
Procedure: as §1, §2

PIV1055 = target: T13, PIV1055 (PIV1); experiment: BLI, 56C stress
T13 construct: A466L, S473L, G134A
Procedure: as §1, §2

PIV1062 = target: T14, PIV1062 (PIV1); experiment: BLI, 56C stress
T14 construct: F113G, F114S, A466L, S473L, A480L, Q92A, G134L
Procedure: as §1, §2

[1] = target: T15, PIV1 F literature prefusion comparison (PIV1); experiment: BLI, 56C stress
T15 construct: F113G, F114S, A466I, S473I (Stewart-Jones et al. 2018)
Procedure: as §1, §2

PIV1048 = target: T16, PIV1048 (PIV1); experiment: BLI, 56C stress
T16 construct: Q92C-G134C, A466L, S473L, A480L
Procedure: as §1, §2

PIV1066 = target: T17, PIV1066 (PIV1); experiment: BLI, 56C stress
T17 construct: A466I, S473I, A480L, Q92L, G134A
Procedure: as §1, §2

PIV1057 = target: T18, PIV1057 (PIV1); experiment: BLI, 56C stress
T18 construct: A466L, S473L, A480L, Q92A, G134A
Procedure: as §1, §2

hMPV066 = target: T19, hMPV066 (hMPV A, UniProt Q6WB98 19-102); experiment: BLI, 50C stress
T19 construct: T49I
Procedure: as §1
(§3) Conformation integrity of hMPV A F protein mutants were evaluated by thermal stress experiments. Crude cell culture supernatants were normalized based on the results of the titer quantitation and then incubated for 1 hour at room temperature and two higher temperatures. […] Anti-Human IgG Fc Capture (AHC) biosensors were first equilibrated in PB before being dipped into more PB to establish the initial baseline. […] The mAb-bound biosensors were then dipped into the thermal stressed cell culture supernatants for 5 minutes. The kinetics analysis was done by OCTET data analysis software (version 12.0, Sartorius) based on curve fitting of the entire associate step.

hMPV068 = target: T20, hMPV068 (hMPV A, UniProt Q6WB98 19-102); experiment: BLI, 50C stress
T20 construct: A159V
Procedure: as §1, §3

hMPV055 = target: T21, hMPV055 (hMPV A, UniProt Q6WB98 19-102); experiment: BLI, 50C stress
T21 construct: N145P
Procedure: as §1, §3

hMPV044 = target: T22, hMPV044 (hMPV A, UniProt Q6WB98 19-102); experiment: BLI, 50C stress
T22 construct: T411C-Q434C
Procedure: as §1, §3

hMPV067 = target: T23, hMPV067 (hMPV A, UniProt Q6WB98 19-102); experiment: BLI, 50C stress
T23 construct: S149T
Procedure: as §1, §3

hMPV075 = target: T24, hMPV075 (hMPV A, UniProt Q6WB98 19-102); experiment: BLI, 50C stress
T24 construct: L473F
Procedure: as §1, §3

hMPV052 = target: T25, hMPV052 (hMPV A, UniProt Q6WB98 19-102); experiment: BLI, 50C stress
T25 construct: L66P
Procedure: as §1, §3

hMPV058 = target: T26, hMPV058 (hMPV A, UniProt Q6WB98 19-102); experiment: BLI, 50C stress
T26 construct: L187P
Procedure: as §1, §3

hMPV059 = target: T27, hMPV059 (hMPV A, UniProt Q6WB98 19-102); experiment: BLI, 50C stress
T27 construct: V449P
Procedure: as §1, §3

hMPV054 = target: T28, hMPV054 (hMPV A, UniProt Q6WB98 19-102); experiment: BLI, 50C stress
T28 construct: S132P
Procedure: as §1, §3

hMPV048 = target: T29, hMPV048 (hMPV A, UniProt Q6WB98 19-102); experiment: BLI, 50C stress
T29 construct: L141C-A161C
Procedure: as §1, §3

hMPV062 = target: T30, hMPV062 (hMPV A, UniProt Q6WB98 19-102); experiment: BLI, 50C stress
T30 construct: G121A
Procedure: as §1, §3

hMPV046 = target: T31, hMPV046 (hMPV A, UniProt Q6WB98 19-102); experiment: BLI, 50C stress
T31 construct: A140C-S149C
Procedure: as §1, §3

hMPV A F WT Control = hMPV A F WT Control (hMPV A, UniProt Q6WB98 19-102); experiment: BLI, 50C stress
Procedure: as §1, §3

hMPV043 = target: T32, hMPV043 (hMPV A, UniProt Q6WB98 19-102); experiment: BLI, 50C stress
T32 construct: G366C-D454C
Procedure: as §1, §3

hMPV069 = target: T33, hMPV069 (hMPV A, UniProt Q6WB98 19-102); experiment: BLI, 50C stress
T33 construct: S291I
Procedure: as §1, §3

hMPV053 = target: T34, hMPV053 (hMPV A, UniProt Q6WB98 19-102); experiment: BLI, 50C stress
T34 construct: L110P
Procedure: as §1, §3

B1: PIV1-8 mAb (antibody, V domains shown)
VH: QVQLVQSGAEVKKPGSSVKVSCEASGGTFSNYVISWVRQAPGQGLEWMGGIIPVFATAKYAQKFQGRVTIIADQSTNTAYLELSSLRSDDTAVYFCASVDSGGTWWDAFAIWGQGTMVTVSS
VL: QAVVTQPRSVSGSPGQAVTISCTGTSSDVGGYNYVSWYQHHPGKAPKLIIYDVTKRPSGVPDRFSGSKSGNTASLTISGLQTEYEADYYCCSYAGSYTLVFGGGTKLTVLG
notes: human IgG1; also called hPIV1-8 mAb; hPIV1-8
- Response Shift (PIV1064): 0.702 nm
- Response Shift (PIV1060): 0.597 nm
- Response Shift (PIV1058): 0.543 nm
- Response Shift (PIV1049): 0.294 nm
- Response Shift (PIV1061): 0.526 nm
- Response Shift (PIV1067): 0.728 nm
- Response Shift (PIV1063): -0.069 nm
- Response Shift (PIV1053): 0.776 nm
- Response Shift (PIV1047): 0.754 nm
- Response Shift (PIV1051): 0.322 nm
- Response Shift (PIV1059): 0.784 nm
- Response Shift (PIV1065): 0.677 nm
- Response Shift (PIV1055): 0.682 nm
- Response Shift (PIV1062): 0.623 nm
- Response Shift [1]: 0.119 nm
- Response Shift (PIV1048): 0.71 nm
- Response Shift (PIV1066): 0.582 nm
- Response Shift (PIV1057): 0.737 nm

B2: hMPV-2 mAb (antibody, V domains shown)
VH: QVQLQQSGAEVKKPGASVKVSCKASGYTFTSYGISWVRQAPGQGLEWMGWISGYNGNTNYAQTFQGTFTMTTDTSTSTAYMELRRLRSGDTAVYYCARDRYYASGSYNGMDVWGQGTTVTVSS
VL: QSALTQPPSASGAPGQRVTVSCSGSSSNVGSSSVYWYQQLPGTAPKLLIYRNNQRPSGVPDRFSGSKSGTSASLAISGLRSEDEADYYCAAWDDSLSGWVFGGGTKLTVLG
notes: human IgG1
- Response Shift (hMPV066): 0.738 nm
- Response Shift (hMPV068): 0.441 nm
- Response Shift (hMPV055): 0.194 nm
- Response Shift (hMPV044): 0.737 nm
- Response Shift (hMPV067): 0.654 nm
- Response Shift (hMPV075): 0.653 nm
- Response Shift (hMPV052): 0.634 nm
- Response Shift (hMPV058): 0.494 nm
- Response Shift (hMPV059): 0.455 nm
- Response Shift (hMPV054): 0.467 nm
- Response Shift (hMPV048): 0.439 nm
- Response Shift (hMPV062): 0.46 nm
- Response Shift (hMPV046): 0.472 nm
- Response Shift (hMPV A F WT Control): 0.284 nm
- Response Shift (hMPV043): 0.567 nm
- Response Shift (hMPV069): 0.465 nm
- Response Shift (hMPV053): 0.566 nm
